Data: PMC2943039

Molecular target: PCNA (Proliferating Cell Nuclear Antigen) (UniProt P12004)
Experiment: PCNA-bead pull-down, anti-FEN1 blot
Conditions: reference: wild type, kinase-treated; sites S187

## FEN1 (flap endonuclease 1) (from UniProt P39748) S187A, kinase-treated
  binding against the reference: stronger
